Assay results published in patent US11753455B2, “Compounds for treatment of obesity” (Novo Nordisk A/S, priority 2018, dated 2023).

Tested on: brain regions of mice (C57BL/6J)
Assay: In vivo imaging of fluorescently labelled GLP-1 Fab fusion proteins in brain (LSFM)
Settings: single i.v. dose 120 nmol/kg, 6 hours
Description: The two fusion proteins include one and the same GLP-1 receptor agonist compound but differ in the Fab part. […] The study is an acute study in mice.
The mice were anesthetised with isoflurane 6 hours (“6H”) following administration of compound and euthanised by transcardiac perfusion with 10 ml heparinised (10 U/ml) saline followed by 10 ml 10% neutral buffered formalin (NBF). Brains were removed and immersed into 10% NBF and stored at 4° C. O/N until further processed.
The brains were dehydrated and saturated in dibenzyl ether (DBE) to minimise scattering of light during scanning by removal of water, and by matching of the refractive index. Brain tissue was dehydrated at room temperature in graded tetrahydrofuran (THF) diluted in demineralised H2O (w/v) 50/80/96/99%/2×100% 6-12 hours for each step. The brains were then cleared at room temperature in 3×DBE for 6-12 hours each step.
Brain samples were scanned using an UltraMicroscope II LSFM system (Lavision Biotec, Bielefeld, Germany) in 10.32 μm isotropic resolution. Data acquisition was performed using a 620/60 nm excitation filter and 680/30 nm emission filter for imaging autofluorescence, and a 710/75 nm excitation filter and 780/40 nm emission filter for imaging specific signals.
Images are single plane images of a z plane (2D). Spectral unmixing was performed to minimise the contribution of tissue auto-fluorescence in the images of the specific signals presented. The unmixing was carried out in Imaris (Release 7.6.5, Zurich, Switzerland) on imported tiff-files. The estimated auto-fluorescence contribution in the specific channel was calculated and removed based on ratios of voxel intensities between selected voxels in the unspecific recording and the corresponding voxels in the specific channel. A ratio was computed for 40 sets of voxels selected based on the histogram of the unspecific recording. The unmixing algorithm was written in Matlab (Release 2012b, Math Works, Natick, Massachusetts, United States) and applied as a XT-plugin in Imaris.
Images were registered to a common reference atlas space for visualisation and quantification using the Elastix software library version 4 (Klein, Stefan, et al. “Elastix: a toolbox for intensity-based medical image registration.” IEEE transactions on medical imaging 29.1 (2010): 196-205). A source image IS(x) was registered to the target atlas image IT(x) by finding a coordinate transformation T(x) that made IS(T(x)) spatially aligned with IT(x). […] Quantification was performed by summation of the unmixed intensity value of all voxels within the individual brain regions, indicating the total fluorescence signal from the compounds in these regions. […] The total signal thus indicates the total fluorescence signal from the compounds in these regions. […]

[1] = active vs inactive TfR compound

B1: Example 8: VivoTag750 fluorescence labelled GLP-1 anti TfR-Fab fusion protein of Example 6 (conjugate)
chain: HGEGTFTSDVSSYLEEQAAREFIAWLVKGRPGGGSGGGSGGGSGGGSDIQMTQSPASLSASLEEIVTITCQASQDIGNWLAWYQQKPGKSPQLLIYGATSLADGVPSRFSGSRSGTQFSLKISRVQVEDIGIYYCLQAYNTPWTFGGGTKLELKRADAAPTVSIFPPSSEQLTSGGASVVCFLNNFYPKDINVKWKIDGSERQNGVLNSWTDQDSKDSTYSMSSTLTLTKDEYERHNSYTCEATHKTSTSPIVKSFNRNECEVQLVESGGGLVQPGNSLTLSCVASGFTFSNYGMHWIRQAPKKGLEWIAMIYYDSSKMNYADTVKGRFTISRDNSKNTLYLEMNSLRSEDTAMYYCAVPTSHYVVDVWGQGVSVTVSSAKTTPPSVYPLAPGSAAQTNSMVTLGCLVKGYFPEPVTVTWNSGSLSSGVHTFPAVLQSDLYTLSSSVTVPSSTWPSETVTCNVAHPASSTKVDKKIVPRDCGHHHHHHHHHH
modifications: VivoTag750 fluorescent label; GLP-1 anti TfR-fab fusion protein; DISULFID (70)..(135); DISULFID (181)..(241); DISULFID (261)..(481); DISULFID (283)..(357); DISULFID (407)..(461)
total fluorescence signal in brain regions that do not express the GLP-1R (FIG. 16D) [1]: slightly higher | total fluorescence signal in circumventricular organs expressing the GLP-1R but devoid of a BBB (FIG. 16B) [1]: slightly higher | total fluorescence signal in brain regions expressing the GLP-1R (FIG. 16A) (compared to GLP-1-Inactive TfR): higher | total fluorescence signal in brain structures expressing the GLP-1R which are protected by the BBB (FIG. 16C) (compared to GLP-1-Inactive TfR): highly increased
